Source: the supplement of paper PMC12042874
± gives the uncertainty stated by the source.

Experiment: amyloid nucleation score (Sup35N fusion, yeast selection) (log enrichment); library NNK1; higher = more nucleation; inactive = no reads after selection
Outline: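 The nucleation score is a DiMSum log enrichment of output over input reads, centred on the mode score of non-aggregating sequences. Sequences under 100 input reads were excluded, and reads came from Illumina sequencing of plasmid inserts. Psi-negative yeast expressing Sup35N fused to peptides of 20 random codons were induced with 100 μM copper sulfate for 24 hours and grown 7 days at 30°C on medium lacking adenine and uracil. Random libraries had three technical output replicates.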

Substance | amyloid nucleation score
RVNTETMITGESGMSIDELM | 1.03 ± 0.76
NLRYSFFFNSDNSRVWECS | 0.682 ± 0.35
EACETLRLYELCLFKWERFR | 0.47 ± 0.58
TFYMTSSLST | 0.028 ± 0.67
QLSLGHNFLCYVMSMRVREV | inactive
NAVITESLIDKAPVGSNWDT | -0.498 ± 0.59
SRTGRH | 0.972 ± 0.93
FGESPH | 0.494 ± 0.74
MLGCVGSCTR | -1.08 ± 1.1
YWDKMTLTKNFKWLDLLGVG | inactive
AFMYYTGATIMHLQSANGGL | 2.27 ± 0.17
LLVNFSTSRLSLYMFIMIFS | -0.779 ± 0.39
WSSTTNWMLRPFKCANRLGW | -0.529 ± 1.3
YWKSIRPILIEC | inactive
GLGDVKNHEFNHVDAEGSGR | -0.741 ± 0.83
KTWNVCALARGWECEAINVW | -0.264 ± 0.3
SDVSYLVNSSNVGLWHL | 0.467 ± 0.4
VPENLKRMRVRAVSLGMSGE | 1.44 ± 0.5
WEDSGVIFLMVCCSVYLGNL | 2.66 ± 0.12
RLAVLEELMVRICIVIRNFW | -0.328 ± 0.69
LTASLTAGVTRWVLRRFVYH | 0.588 ± 0.77
MLVRG | -0.351 ± 0.49
LSCWTCNRFYRGGLLVCMYP | -0.713 ± 0.46
ILSLNCFYRTWRLEMNKSYK | 1.94 ± 0.52
FESRDVRSLWWDWSYSNKTV | 0.191 ± 0.28

Substance | amyloid nucleation score
HSCEPVMLVLNMNR | 8.159 ± 0.072
IVVFSIYYVCSDGGPRVTRR | 1.43 ± 0.3
FWLLS | -0.153 ± 1
RVVWVVFGWGLIHLGGLLCG | 0.146 ± 0.81
YILLLFSVVWIKKFGDCSCA | -0.048 ± 0.35
CFCFFIVSPMMF | 3.89 ± 0.056
HLSALLANSNLNKM | -0.359 ± 0.52
DSCRWGFLRVRVLGFSSVWY | -0.28 ± 0.49
TFVQF | -0.066 ± 0.51
LGCSFR | -0.065 ± 1.4
SIQLGSFWSGCEICCDYPPA | -0.805 ± 0.67
FKSYWGSTWRSNSWVGDMRG | -0.225 ± 0.46
FSWADLDRYCISLQNQGPLA | 0.66 ± 0.42
ECDYDYGTSWSQVSYVRGV | -0.773 ± 1.2
LQSTFFFYGGCKRVWSMMYH | 4.45 ± 0.12
IFYIYLRGLVMIVRRSMVIR | inactive
PCAETLVRHIHAYLKWI | 0.065 ± 1.2
YIGECLRKLIRCAHKDCEGY | -1.49 ± 1.2
RCRPKVWACS | -0.102 ± 1
CVTAVIRDGWGWNYCCRDHR | inactive
CFRFDYVGTYKHMPFR | 4.02 ± 0.16
VMSATVSSFWTEVCRMRTVT | 1.14 ± 0.66
WCHGHYHSSNEMSTI | 1.37 ± 0.69
FNKTSMVSGNQLRVLVLVNI | 1.08 ± 0.59
VCLQW | 0.386 ± 0.64

Substance | amyloid nucleation score
ELKRGVHLRPE | 4.36 ± 0.14
LFTRIFSLSMYVPNCFRYAY | 1.02 ± 0.39
DGARDFRLRMLACSRLSRGI | 0.053 ± 0.72
HSNYFPKSLYVLGLFCSTVS | 6.22 ± 0.065
QNVACSMH | 0.093 ± 0.57
VQADFFCSAPGHCIWVNGMR | 1.73 ± 0.31
YEKSFGTYTM | -0.045 ± 0.28
VGQLSTFCLGILIVLSVN | 0.338 ± 0.18
REEKV | 0.068 ± 0.42
FTVLWCRSMLGC | -0.111 ± 0.4
FLSLFVSVV | -0.18 ± 0.97
WAAFLVMDGWICDQAYMTMR | inactive
YQWIFIHLPAVLSVGMEIRY | -0.672 ± 0.49
FIIVEECNFRNRRLTYRLFI | 0.816 ± 0.49
GRVKINKNLSVYKYINFRDS | 2.04 ± 0.21
YWSLVVAAWRMENGWHGFLL | 0.059 ± 0.39
YTVLEGGALCFLKELRHRIL | -0.146 ± 0.32
IINRNYI | 1.1 ± 0.84
RWAVLACFCMGD | 0.434 ± 0.81
IGCKCDIFVCNCISVCYVGA | 4.3 ± 0.16
SCKPGPIVSLDFVFVVYPWE | 0.002 ± 0.9
LSDLDIRKQLVYMRSIRVGT | -0.339 ± 0.94
SQCELWGCSCTPYNRMFSGN | inactive
RRLLISPMTYVSDLASIQGC | 0.175 ± 0.26
YGSLFED | 0.108 ± 0.77

Substance | amyloid nucleation score
PSSHWIAPNFVVN | inactive
GDNACLLSSIEDALDSVQVL | 0.99 ± 0.67
RESDFYTLDLRQVMISAEPL | 0.158 ± 0.36
PFILFQWPTLHRDYVHAQVL | 0.686 ± 1.1
ITFLRSTIPSVRTRQRLHEL | 0.783 ± 0.4
GVCRLLGKVAMLV | -2.1 ± 2.4
LEHYRVVLLG | -0.535 ± 0.43
YNLYRH | 0.406 ± 0.51
GWFAR | -0.191 ± 0.57
YSIDLIPYRDYGNKTCHGIM | 2.27 ± 0.081
EIGYMGLSVSIFRCVWLFIF | 0.056 ± 0.34
LSSNSYQDVSVCQGFLFFVA | 3.36 ± 0.15
SDWGGVMVDRGSGW | 1.36 ± 0.47
TLTSPWDSYKRFCKNSPLFN | 0.353 ± 1.4
NFVSYTFLCCGCVVLILVTS | 0.114 ± 0.28
TGSLLTSTWS | -0.474 ± 0.78
VRSFVHTWLDTTWA | -0.025 ± 0.36
LMGNEL | -0.396 ± 0.4
GCLFICSMRELYKSASSTMR | 0.141 ± 0.48
SNLRMLNMASTSPR | -0.368 ± 0.34
AFCSAAVQAEICEWCNSIYA | -0.431 ± 0.64
MYGITKSA | 0.195 ± 0.64
NSINFFNMFVYWL | 6.26 ± 0.056
HGSVRSLSYRLVSLYLSRMC | 0.748 ± 0.45
TVRLKLINRYPDENRLYTDH | 1.3 ± 0.21

Substance | amyloid nucleation score
NRLGLGPVSSICGR | -0.339 ± 0.81
DIVATYRVRISLNPNVMVTY | 0.466 ± 0.32
FISCCARIFTTCGIAD | 1.19 ± 0.14
LSFNSTSPEIIRTVVMAWC | -1.54 ± 1.7
GDTYHNYVWRLDACSTLPWY | -0.547 ± 0.53
VIRRLRSTYMSDMLLEGGLA | 0.864 ± 0.56
MRAFGVNGTVQRWWGSCSRF | 0.766 ± 0.46
CLYVAESSTTMNLWDHSVLP | -0.575 ± 0.41
HDASSFSLMRKFRCGC | 0.333 ± 0.69
IKDTGYYLHMIEQPDTLNLW | 0.651 ± 0.53
DNSRIYLCGSLNCFYFSDVL | 7.656 ± 0.074
CWMHFPYQVESDGQTNRAFD | 0.041 ± 0.34
KCYTMHWPGS | -1.07 ± 1.7
MFTNLQIWWDSMACYFWDVF | 0.923 ± 0.48
RVLCCRYN | 0.19 ± 0.51
FIYFYGRYNSSGDPFQVFLG | -0.578 ± 0.34
RARCFHSSLVVRLLRQTAER | 0.192 ± 1
RDIILGVLDRCSHCKNRALI | 0.223 ± 0.62
AFVTSRPYWGNSVVEAHLVG | 1.69 ± 0.19
RYAWVTMVVYACLQLGSASR | 0.678 ± 0.21
NRTIFVVRHTDFGYLA | 0.661 ± 0.75
WRIMNHNVLLMLVRLGSILL | 1.18 ± 0.28
GKFDSGYVKGTVHNEAEFQP | -0.223 ± 0.31
AFFSAKIKAPFNDVFGYGFV | 0.289 ± 0.33
FEHVSMWIVCFVKNLKYRIR | -0.86 ± 0.86

Substance | amyloid nucleation score
TLRVLFFKCLGHIRLLVRGF | -1.64 ± 2.7
KETLGIQ | 1.19 ± 0.52
FTQKIFQTFFDHAYNWFSRV | 0.918 ± 0.46
TIWCVD | 1.01 ± 0.28
VSRPQMSSTTEHSTTDYFGC | inactive
ALSPRVSSLGNFT | -0.691 ± 0.53
RQEVKAMGRFTATSLGTHSR | 0.399 ± 0.47
MDKLMSMELLSFLGNRSVHV | inactive
QLAAWSGFN | 0.522 ± 0.28
SRRVQLYVLGFRGIKSGTFL | -0.066 ± 0.62
PRSMRKNSYGLGSGVRDHVQ | -0.238 ± 0.56
TSPCYWNCI | inactive
YSLGVPSPRKILNVFGGTW | -0.101 ± 0.47
GFFFVFHYSGTHGLICCYTL | -0.22 ± 0.41
SIYYKARSEWSMASAIDGYV | 0.85 ± 0.72
NICMQTRVIRAS | 0.811 ± 0.5
HPQVTWGSRLAVNFCAWCYG | 4.5 ± 0.054
CTEKMIFTDLHRLRVVYKYT | -0.59 ± 1.6
SMLRCLY | 0.758 ± 0.85
MTFVMHIAWG | 1.55 ± 0.26
LNSVVTVKWVLKARSLVVRC | 1.16 ± 0.88
HTKTLAFHIILTIILRCMFL | 0.713 ± 0.34
RYMWYLVCS | 0.026 ± 0.7
KKYVMSNVTCVE | 0.934 ± 0.47
MDSFVITSFSYNTSLTMRIL | 1.4 ± 0.42

Substance | amyloid nucleation score
NVVSYFHMAFGWCFNLW | 1.94 ± 0.26
DGGAFAGRS | -1.06 ± 0.81
WVPMDVF | 1.61 ± 0.35
RVVLCDI | 0.261 ± 0.75
VSNFLSYNRWAHHGLFNSSF | 0.553 ± 0.53
VRRVPKLVHAADLELWAGSE | -0.754 ± 1.1
FHCTNSMVMLGRHATMLFFY | 5.92 ± 0.095
ETALVVLTRVTEGCGRGQKT | 0.668 ± 0.77
TNVMLPNGVGFLAPAVHCES | 1.04 ± 0.51
FLLIVVCWDLRLSSFHKLYF | 0.657 ± 0.73
NYAARPHSRSLLGAYDCSWS | 0.731 ± 0.47
IGDNVNGSLLEIW | -0.528 ± 0.32
TWSCMFLYYFTLWLCTS | inactive
ICTSSTKGRLCRSCPLASRL | 0.205 ± 0.38
KWSSRCQWDWTLLGTCLAL | 0.29 ± 0.3
VKYGDSRLADAWNFVSNK | -0.476 ± 0.3
RTCDIRSLHPTTEGSETCGR | 0.306 ± 0.56
RMRRLCVSEGRDLSGECCYM | 0.544 ± 0.3
WDMAFSVALGLRYMRCGLKL | -0.286 ± 0.35
TEQGMWHSLAGGR | inactive
WFSWLVGEILCWCGGWVRSK | 0.404 ± 0.51
TKHRELVLPGLVFTTEYCLV | -0.693 ± 1.6
